Data set [1] deals with T1, recombinant full-length human transglutaminase 1 (TGase 1) enzyme (human, UniProt P22735 1-817, constitutively N-myristoylated and S-myristoylated or S-palmitoylated on its amino-terminal 10 kDa portion).
T1 construct: also called TGase I; TGAaseI
T1 sequence (looked up): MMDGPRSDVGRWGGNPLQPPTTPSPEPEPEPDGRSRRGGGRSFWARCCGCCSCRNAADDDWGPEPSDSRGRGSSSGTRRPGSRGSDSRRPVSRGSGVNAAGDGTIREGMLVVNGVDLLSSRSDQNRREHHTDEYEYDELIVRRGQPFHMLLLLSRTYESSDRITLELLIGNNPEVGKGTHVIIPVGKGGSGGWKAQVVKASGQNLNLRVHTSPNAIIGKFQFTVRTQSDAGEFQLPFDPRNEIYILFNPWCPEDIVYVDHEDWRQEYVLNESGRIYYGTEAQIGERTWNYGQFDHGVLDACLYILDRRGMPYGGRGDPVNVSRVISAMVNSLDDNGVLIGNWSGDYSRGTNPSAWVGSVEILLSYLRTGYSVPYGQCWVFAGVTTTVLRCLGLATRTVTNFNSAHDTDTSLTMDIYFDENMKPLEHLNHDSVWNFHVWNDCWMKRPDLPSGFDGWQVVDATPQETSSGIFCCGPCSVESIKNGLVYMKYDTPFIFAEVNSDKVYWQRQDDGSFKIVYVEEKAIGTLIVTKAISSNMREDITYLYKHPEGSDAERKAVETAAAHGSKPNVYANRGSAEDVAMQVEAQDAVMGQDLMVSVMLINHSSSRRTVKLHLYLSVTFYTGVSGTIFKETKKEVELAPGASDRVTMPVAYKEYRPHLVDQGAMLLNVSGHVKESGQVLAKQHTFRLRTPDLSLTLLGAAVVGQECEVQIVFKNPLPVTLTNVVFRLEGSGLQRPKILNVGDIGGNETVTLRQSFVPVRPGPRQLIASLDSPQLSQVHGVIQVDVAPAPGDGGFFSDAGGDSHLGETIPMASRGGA
Kind of data set: 14C-putrescine labelling of involucrin Gln residues by TGase 1, tryptic peptide sequencing. As to the method:
In this first set of experiments, the Gln residues of involucrin that were cross-linked by recombinant TGase 1 were analyzed in the absence of natural insect cell membranes and SLV. ¹⁴C-putrescine incorporation into involucrin was analyzed following trypsin digestion and separation of tryptic peptides on a C18 reverse phase HPLC column. Labeled peptide peaks were dried and identified by sequencing. The PTH derivative of (-glutamylputrescine isopeptide formed in the TGase reaction was identified as a distinct peak in the Porton LP 3000 gas-phase sequencer. (FIG. 7). A total of 40 tryptic peptides were reliably separated, of which 29 (arrows) were labeled by ¹⁴C-putrescine in a reaction with solubilized recombinant TGase 1 and involucrin. (FIG. 8A). Sequencing identified […] labeled Gln residues (Table 2, panel A), with a total of about 20 mol of putrescine incorporated/mol of involucrin (Table 2, panel A). In contrast to the 29 Gln residues found to be involved in the binding of involucrin to soluble TGase 1 in the experiments above, membrane-bound TGase 1 binds to involucrin through five specific Gln residues, as discussed in the following section.

The target of data set [2] is succinylated casein.
Data set [3] has as its target T2, recombinant human involucrin, P07476.
T2 chain: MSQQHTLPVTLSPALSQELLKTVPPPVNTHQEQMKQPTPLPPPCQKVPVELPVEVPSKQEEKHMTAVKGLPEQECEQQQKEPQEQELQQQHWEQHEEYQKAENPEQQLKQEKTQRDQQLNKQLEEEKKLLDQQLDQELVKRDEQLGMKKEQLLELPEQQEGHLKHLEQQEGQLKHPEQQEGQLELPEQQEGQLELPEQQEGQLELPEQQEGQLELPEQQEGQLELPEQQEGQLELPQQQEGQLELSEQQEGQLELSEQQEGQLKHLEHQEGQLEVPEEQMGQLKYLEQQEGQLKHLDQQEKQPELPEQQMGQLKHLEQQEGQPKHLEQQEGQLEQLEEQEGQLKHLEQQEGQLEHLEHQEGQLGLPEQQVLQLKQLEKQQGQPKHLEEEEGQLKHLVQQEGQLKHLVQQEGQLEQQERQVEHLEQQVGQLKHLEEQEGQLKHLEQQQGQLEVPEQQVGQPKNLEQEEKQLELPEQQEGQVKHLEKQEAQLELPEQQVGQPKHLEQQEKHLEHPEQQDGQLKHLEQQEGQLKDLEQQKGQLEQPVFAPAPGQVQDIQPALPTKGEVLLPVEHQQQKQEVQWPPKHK

Data set [4] addresses recombinant human small proline rich protein 2 (SPR2).

B1: recombinant human involucrin (other, UniProt P07476 1-585, looked up)
chain: T2 chain
notes: Substrate of TGase 1
Consider B1, for which the binding result in data set [1] was “binds”.

B2: recombinant full-length human transglutaminase 1 (TGase 1) enzyme (protein)
chain: T1 sequence (looked up)
As for B2, in data set [2], the KM(app) of the protein substrate; 14C-putrescine incorporation by SLV-bound TGase 1 (0% PS) is 138 µM, the KM(app) of the protein substrate; 14C-putrescine incorporation by SLV-bound TGase 1 (15% PS) stood at 145 µM and the KM(app) of the protein substrate; 14C-putrescine incorporation by solubilized TGase 1 was 61.4 µM. In data set [3], the KM(app) of the protein substrate; 14C-putrescine incorporation by SLV-bound TGase 1 (15% PS) was 2.9 µM; the KM(app) of the protein substrate; 14C-putrescine incorporation by solubilized TGase 1 turned out to be 114 µM; the “fold decrease of KM, SLV with 15% PS against solubilized TGase 1 and soluble involucrin” value is listed as “an approximately 40-fold decreased KM”; the “kinetic parameters for involucrin as substrate, SLV-bound TGase 1 (0% PS)” value is given as “The kinetic parameters for involucrin as a substrate were immeasurably low when the SLV were formulated in the absence of PS”. In data set [4], the KM(app) of the protein substrate; 14C-putrescine incorporation by SLV-bound TGase 1 (0% PS) was determined as 25.3 µM, the KM(app) of the protein substrate; 14C-putrescine incorporation by SLV-bound TGase 1 (15% PS) amounted to 22.8 µM, the KM(app) of the protein substrate; 14C-putrescine incorporation by solubilized TGase 1 is 13.2 µM and the “fold increase of KM after attachment of TGase 1 to SLV (0 or 15% PS)” value is reported as “differed only by about a two-fold increase in KM if the PS content of SLV was 0 or 15%”.

Values taken from US20030072795A1 (US Dept. of Health and Human Services, published 2003).
